The source of these data is patent US7029676B2.

The target in assay [1] is Human E-cadherin (human).
Assay [2] addresses Human E-cadherin (human). The source holds these as a separate data set.
Assay [3] deals with Human E-cadherin (human). The source holds these as a separate data set.
The target of assay [4] is Human E-cadherin (human). The source holds these as a separate data set.
In assay [5] the target is integrin β1 subunit (human) (UniProt P05556).

In the assay with Human E-cadherin (human) [1], “α^Eβ7 integrin (from UniProt P38570) (receptor)” registered an adhesion of α^Eβ7 COS-7 transfectants to L-M monolayers of 79%. For the same substance, the adhesion of IEL to L-M monolayers (percent of IEL bound) with Human E-cadherin (human) [2] is 89%. The same substance yielded an adhesion of COS-7 transfectants to 16E6.A5 monolayers with Human E-cadherin (human) [3] of 267%. In the assay with Human E-cadherin (human) [4], this substance gave an adhesion of COS-7 transfectants to L-M E-cadherin transfectants of 81%.

In the case of 4B4 (antibody), the inhibition of IEL adhesion to the 16E6.A5 epithelial cell monolayer in assay [5] came to 21%.

For “α^4β7 integrin (from UniProt P13612) (receptor)”, in the assay with Human E-cadherin (human) [3], the adhesion of COS-7 transfectants to 16E6.A5 monolayers (percent bound) is 9%. In addition, in the assay with Human E-cadherin (human) [4], the adhesion of COS-7 transfectants to L-M E-cadherin transfectants (percent bound) was 16%.
